Assay: soluble on expression in E. coli; label from the status in PepcDB or PDB records

Sequence	soluble on expression in E. coli
MFNKKMVAMAMTVPLVMGTLSTVSAVETKKQVKVEAYSPQKKAIEYLKGNANQYGLKPDLSDLQYISTTETPVASYVRFQQVVNGAPVFSNQITVTLNGEGKGVLAVSDYQPIKAVKQVTEKISEKDAIQKSMAYVGEASEQNLWAPTEKEFGYIIEEGIARPVYKVVVHSNNPFGAWETFIDAENGKLIKKVDINRKVEGTGKVFLPNPVVSSGSLAGLKDNNDADSTALTNQLKTVTLKGLDGTGFLIGEYVTISSKARTKSTNLQFNYTRANDSFEDVMSYYHIDTLQRYIQSLGFQNINNRSIKVNVNGTTADNSFYSPTTKALTFGTGGVDDAEDAGIIAHEYGHSIQDNQVPGFGSSAEGGAMGEGFGDFLGATYEDAVSTTGYGKACVGEWDAAAYSSSDPTCLRRLDTNKVYPKDMKNQVHADGEIWSQGQYEMAQAFGRDVATKIILQSHWSLTPNSKFSDGAKAIKQADALLYGGQHAADIDRIWAARGISTN	not soluble
MGSDKIHHHHHHMAKERALTLEALRVMDAIDRRGSFAAAADELGRVPSALSYTMQKLEEELDVVLFDRSGHRTKFTNVGRMLLERGRVLLEAADKLTTDAEALARGWETHLTIVTEALVPTPAFFPLIDKLAAKANTQLAIITEVLAGAWERLEQGRADIVIAPDMHFRSSSEINSRKLYTLMNVYVAAPDHPIHQEPEPLSEVTRVKYRGIAVADTARERPVLTVQLLDKQPRLTVSTIEDKRQALLAGLGVATMPYPMVEKDIAEGRLRVVSPESTSEIDIIMAWRRDSMGEAKSWCLREIPKLFNGK	not soluble
MRVTDFSFELPESLIAHYPQPERSRCRLLSLEGPTGALTHGTFTDLLDKLNPGDLLVFNNTRVIPARLFGRKASGGKIEVLVERMLDDKRILAHIRASKAPKPGTELLLGDDESIHATMTARHGALFEVEFNDPRPVLDILNAIGHMPLPPYIDRPDEDADRELYQTVYSEKPGAVAAPTAGLHFDEPLLAALREKGVEMAFVTLHVGAGTFQPVRVDTIEDHIMHSEYAEVPQEVVDAVLAAKARGNRVIAVGTTSVRSLESAAQAAKSDLIEPFFGDTQIFIYPGYQYKVIDALITNFHLPESTLIMLVSAFAGYQHTMNAYKTAVEQKYRFFSYGDAMFITYNPQAISERP	not soluble
MQHLDLQVVRKALKWSVGGERVWFCTVLTTYGSAPRAPGSLLAVNASGEWIGSLSGGCVEDDFLERVAAGGFPDPAVIVRYGEGDDPNSNIRLPCGGILDVLVENLAPDCDVQAHLRELESALLGQRRLLREVELGSGARSLRDDSSHGPRAERDGECVRLRVGAAQRLLLAGYSSVAHACAEFGKGLGFEVILCDPREEALRGVVLEGIEIRRELPSLFIADGGCHADTAVVALTHDPKIDDLAMLEAVRTEAFYIGVMGSRATSEKRFERLRRIGGLGDAELARIHAPIGLNLGSKTPAEIALAVLADILRIRNGIPRERL	not soluble
ITLKYNYTVTLKDDGLYDGVFYDHYNDQLVTKISYNHETRHGNVNFRADWFNISRSPHTPGNDYNFNFWYSLMKETLEEINKNDSTKTTSLSLITGCYETGLLFGSYGYVETANGPLARYHTGDKRFTKMTHKGFPKVGMLTVKNTLWKDVKAYLGGFEYMGCSLAILDYQKMAKGKIPKDTTPTVKVTGNELEDGNMTLECTVNSFYPPDVITKWIESEHFKGEYKYVNGRYYPEWGRKSNYEPGEPGFPWNIKKDKDANTYSLTDLVRTTSKMSSQPVCVVFHDTLEAQVYTCSEGCNGELYDHLYRKTEEGEGGSHHHHHH	soluble
NDNSPRFEKSVYEADLAENSAPGTPILQLRAADLDVGVNGQIEYVFGAATESVRRLLRLDETSGWLSVLHRIDREEVNQLRFTVMARDRGQPPKTDKATVVLNIKDENDNVP	soluble
GNSKKHNLILIGAPGSGKGTQCEFIKKEYGLAHLSTGDMLREAIKNGTKIGLEAKSIIESGNFVGDEIVLGLVKEKFDLGVCVNGFVLDGFPRTIPQAEGLAKILSEIGDSLTSVIYFEIDDSEIIERISGRCTHPASGRIYHVKYNPPKQPGIDDVTGEPLVWRDDDNAEAVKVRLDVFHKQTAPLVKFYEDLGILKRVNAKLPPKEVTEQIKKIL	soluble
MAHHHHHHMRSLPNIIVTGVPGVGKTTLCEELVEVINKELQEGQQAEPANQMKHLNLSKVIKEERLYEEFDDQLDATIYSNDMVNEKMEKLKLENGGYIIDFHDVDFLEQKELIDHIFLLTTSTNKLYERLEKRNYAKEKIKNNIECEIFQVIKEDILTFYNDPSIFDELGNNDMEQYESNLQLIKGWVLSWAKSGEALPR	soluble
VLQLAEQIDVVIFDLNGTLTTGVPVVKEYAVLNDADLSSEHFLSICNVLEGQSKHPFGKAIQSFTQGINKQKFNIANLDHSNHSGISAEINGIQYTIGSKTLMQEIGISTSSLENQMNLVAGDSLVFLARNKQLLGYLVITDPLRKDAKQTVDALIKMGKEVHLCTGADEKTAYRYAQALGIKKVHANCVATTINTEDRSKPVYIKSLQNQGLKVAMIGDAANDANALAASDFGIAVLSQDSDEITQQHASAIIQSGTILPIANAFAISKQTVNNINQNLLISLGYNLTTV	not soluble
MGSDKIHHHHHHMTNWNLWRTLNMEYIINPCSGIKIKITRGQKIKIVDIEGGQVVDFFAEMKDDSTEFISPGVTIDCNESLRLQVGNLIYSNKYRPMFKILYDDVREHDLLHPCCRPEMYDFFYHNGENHPNCFDNINRTLGTSHQIIHPINFFMYTKVNTDGSIEVCEPLSKANDKIILEALENMTLGIAACSVSESSCNSRKCTSIKILVD	not soluble
MGSDKIHHHHHHMRERAAVPPRAVQHSDDVAMVLRMDQPDFIQITDDAVSRDDCAAIVQRMRDSQQLQPGRIGSGVFPDLKHSRDLRISGLADWAAVENRLQQAVFEGLLRYLRQYPQALISPLMLQVTTADGTPHRLVAEDIAQMSDAALSDLARTCLRPGAINLQWYLADQGGYPYWHCELYPRDAGAETLHRHLLWTLYLNEEFEQGETEFLFQQRKARPRTGSLLIAPTAFTHTHRGNRPVGGDKFIATSWILFQSAQALYGGE	not soluble
MTYLEIEGTNHLSGNVTISGAKNAALPLIVSSILAKNEVKINNVPNVADIKTLISLLENLGAKVNFQNNSALLNTNTLNQTIAKYDIVRKMRASILTLGPLLARFGHCEVSLPGGCAIGQRPIDLHLLALEKMGANIQIKQGYVVASGNLKGNEILFDKITVTGSENIIMAAALAKGKTKLLNVAKEPEVVQLCEVLKDAGLEIKGIGTDELEIYGSDGELLEFKEFSVIPDRIEAGTYLCAGAITNSKITLDKVNATHLSAVLAKLHQMGFETLITEDSITLLPAKEIKPVEIMTSEYPGFPTDMQAQFMALALKANGTSIIDERLFENRFMHVSELLRMGADIKLNGHIATIVGGKELNAADVMATDLRASSALILAALAAKGTSKVHRIYHLDRGYENLEEKFKDLGAKITRLEE	not soluble
PTIFEERHLKYISQLGKGNFGSVELCRYDPLGDNTGALVAVKQLQHSGPDQQRDFQREIQILKALHSDFIVKYRGVSYGPGRPELRLVMEYLPSGCLRDFLQRHRARLDASRLLLYSSQICKGMEYLGSRRCVHRDLAARNILVESEAHVKIADFGLAKLLPLDKDYYVVREPGQSPIFWYAPESLSDNIFSRQSDVWSFGVVLYELFTYCDKSCSPSAEFLRMMGCERDVPALCRLLELLEEGQRLPAPPACPAEVHELMKLCWAPSPQDRPSFSALGPQLDMLWSGSR	soluble
MSLQLLAPGANTALANAHCSWNLESGTSSVFGEYAAVALLAVNEKRQPMGDPALLHQEQSWMEWSGGPQDVGCTLKLDRLPAGSDRVLLMVYVYAAMGPIRDFASLRLKVDANIEHRLDLRDNGEAAIIIGEFYKRNDQWKFRALSEGSAYGLSAFGRKIGLEVDDRHPRRPSGGSGGPAGGPRHESATGTAFVVGPAHVMTCAHVIEDMGVFYINSLEGRYKAEAVVIDRRNDIALLRVQGAPPLSAVTFREGQGCEPGDTVAVLGYPLASISGGGLQVTQGGISGLFGLHNDASLFQFTAPIQPGSSGSPLFDNGGAVIGMVTSTVPDGQNMNFAVKSALLMSFLQACRIDAPHARAERSYTTTEISRTFQSSLWLVEASREGHHHHHH	soluble
MTISRRSLLEGLLGAAAGLALLPVLGGRAGAALPREAEVVVVGAGAAGIAAARRIVAAGRKVIVVEAASEIGGRCVTDTTSFAAPFDRGARWLHNPDSNPLVRLARSSGFAVTPVAPGQKVRIGRRNARSRETEDFLAAFVRASRAISDASRGKSDISCAAALPNDLGDWAATIEYVLGPATTSKDLRALSAMDAVRTLDRTALLGCPQGVGSLLTQLASSLPIALSTPVKRIVWSGRDLAVETTAGRIGARAIIVTASTNVLTSGNLGFSPELPKRQLDAAARLSLGSIDRIALQFKGNPLGLSRDETIIERADDIRTATLVGNIGGTSLCTVDVAGSFGRQLAAQGEAAMQDFAIEWLGKLFGSDIAGAVERKAVTRWNEMPYVLGAMSAAEPGGQPSRKVLGEPLGNLFFAGEATHETLFGTVQGAWESGERAADAALKKIGAVKEPAPEKPVRKQKPRREPQRQREQRPPATASGTPSWWRLEHHHHHH	not soluble
EEALIKIKQQEIVKNLPANAALVQLKYAGKTTDEPILNNLYKKYQVTANILYGNIEILEKTPVGEMIVILEGAATNIDQALNDLTHSDLTVTVLKRGV	not soluble
EVSTTQNDTLKVMTHNVYMLSTNLYPNWGQTERADLIGAADYIKNQDVVILNEVFDNSASDRLLGNLKKEYPNQTAVLGRSSGSEWDKTLGNYSSSTPEDGGVAIVSKWPIAEKIQYVFAKGCGPDNLSNKGFVYTKIKKNDRFVHVIGTHLQAEDSMCGKTSPASVRTNQLKEIQDFIKNKNIPNNEYVLIGGDMNVNKINAENNNDSEYASMFKTLNASVPSYTGHTATWDATTNSIAKYNFPDSPAEYLDYIIASKDHANPSYIENKVLQPKSPQWTVTSWFQKYTYNDYSDHYPVEATISMK	soluble
MAMPEIDALLGLSFCLYFFDNKQHKLPHIHVKYGSYELIIAIETGECLEGYLPNKQRKRAENHILEHREQLMVMWNKAVNGENPGKLGDLCLEHHHHHH	not soluble
MSLIDIHSHIIPNIDDGSKSLEMSLEMLKRAEESGTKKIIATPHFFKGYWTENYNSVKDKVKELNKLAKENNLNIEIYPGQEVFFNNYILEDFKLGDIGTLGESRYMLIEFPMDKIYFQKAIDEIYELKIKGITPVIAHPERYVDFINNPEEINQFIDEGYLFQLNGGSLTGLFGKEVKKTAELFLENNLYSFIGSDAHSNGNRNTSLKEACEVANSISRGASRRFEANGLALLNNEKIVFQGEGHHHHHH	soluble
MTIAVDFDGTIVEHRYPRIGEEIPFAVETLKLLQQEKHRLILWSVREGELLDEAIEWCRARGLEFYAANKDYPEEERDHQGFSRKLKADLFIDDRNVGGIPDWGIIYEMIKEKKTFADIYSQQREENTSQKKKRKWLPF	soluble
MEDKNSVIVFKNVSFQYQSDASFTLKDVSFNIPKGQWTSIVGHNGSGKSTIAKLMIGIEKVKSGEIFYNNQAITDDNFEKLRKDIGIVFQNPDNQFVGSIVKYDVAFGLENHAVPYDEMHRRVSEALKQVDMLERADYEPNALSGGQKQRVAIASVLALNPSVIILDEATSMLDPDARQNLLDLVRKVKSEHNITIISITHDLSEAMEADHVIVMNKGTVYKEGTATEIFDNAEELTRIGLDLPFPIKINQMLGHQTSFLTYEGLVDQL	not soluble
